The values below come from PMC4767940 (PLoS ONE, 2016).

In assay [1] the target is H-2D^b on the surface of RMA-S cells (mouse (endogenous in RMA/S)). Kind of assay: flow cytometry on cells. Background: Flow cytometry measures light scatter and fluorescence of single cells or particles in a stream.
Assay [2] relates to CD8+ T cells. The conditions noted are these: cited from earlier work.

Consider “GP33-41 peptide (wildtype GP33 epitope of LCMV)”, for which the half-life of the peptide on H-2D^b in assay [1] was > 5 h.
Turning to `O=CC[C@@H](O)[C@H](O)[C@H](O)CO` [2-deoxyglucose], the “formation of memory CD8+ T cell responses” value in assay [2] is “augments the formation of memory CD8+ T cell responses”.
